# Assay results: publication PMC6367351 (Nature Communications, 2019)
# Where no end group is shown, it is not given here.
# T1: MinElp3 (Methanocaldococcus infernus, UniProt D5VRB9)
# T1 construct: gene Metin_0452; full length
# T1 sequence (D5VRB9 1-534): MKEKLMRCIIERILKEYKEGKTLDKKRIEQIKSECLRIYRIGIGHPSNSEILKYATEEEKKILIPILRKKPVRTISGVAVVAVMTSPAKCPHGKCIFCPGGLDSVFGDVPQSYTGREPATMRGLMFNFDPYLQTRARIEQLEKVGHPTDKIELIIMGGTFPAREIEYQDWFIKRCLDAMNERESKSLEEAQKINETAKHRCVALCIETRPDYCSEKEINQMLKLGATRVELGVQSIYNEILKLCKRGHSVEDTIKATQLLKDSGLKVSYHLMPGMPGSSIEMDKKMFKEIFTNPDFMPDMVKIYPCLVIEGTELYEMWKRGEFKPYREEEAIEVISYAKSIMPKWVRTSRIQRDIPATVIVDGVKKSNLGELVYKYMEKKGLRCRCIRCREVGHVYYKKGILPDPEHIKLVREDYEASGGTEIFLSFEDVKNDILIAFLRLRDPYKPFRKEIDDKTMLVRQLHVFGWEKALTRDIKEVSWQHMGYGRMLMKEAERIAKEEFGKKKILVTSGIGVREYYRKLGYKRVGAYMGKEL
# T2: MinElp3 (Methanocaldococcus infernus, UniProt D5VRB9, K150A)
# T2 construct: gene Metin_0452
# T2 sequence (D5VRB9 1-534 K150A): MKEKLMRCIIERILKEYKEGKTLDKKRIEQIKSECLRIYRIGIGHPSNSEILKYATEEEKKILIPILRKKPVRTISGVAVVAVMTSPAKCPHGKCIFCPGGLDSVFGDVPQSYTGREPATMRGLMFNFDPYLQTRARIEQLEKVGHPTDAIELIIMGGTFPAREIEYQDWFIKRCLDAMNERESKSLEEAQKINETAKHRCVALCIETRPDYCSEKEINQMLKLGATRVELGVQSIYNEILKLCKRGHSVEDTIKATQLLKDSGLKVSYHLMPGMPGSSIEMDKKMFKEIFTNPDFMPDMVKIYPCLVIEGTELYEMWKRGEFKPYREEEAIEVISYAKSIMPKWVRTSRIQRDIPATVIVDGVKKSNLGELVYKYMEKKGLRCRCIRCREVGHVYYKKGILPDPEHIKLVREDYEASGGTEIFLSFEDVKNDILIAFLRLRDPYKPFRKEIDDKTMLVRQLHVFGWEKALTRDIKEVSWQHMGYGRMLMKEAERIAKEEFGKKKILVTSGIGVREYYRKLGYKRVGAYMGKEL
# T3: MinElp3 (Methanocaldococcus infernus, UniProt D5VRB9 1-534)
# T3 sequence: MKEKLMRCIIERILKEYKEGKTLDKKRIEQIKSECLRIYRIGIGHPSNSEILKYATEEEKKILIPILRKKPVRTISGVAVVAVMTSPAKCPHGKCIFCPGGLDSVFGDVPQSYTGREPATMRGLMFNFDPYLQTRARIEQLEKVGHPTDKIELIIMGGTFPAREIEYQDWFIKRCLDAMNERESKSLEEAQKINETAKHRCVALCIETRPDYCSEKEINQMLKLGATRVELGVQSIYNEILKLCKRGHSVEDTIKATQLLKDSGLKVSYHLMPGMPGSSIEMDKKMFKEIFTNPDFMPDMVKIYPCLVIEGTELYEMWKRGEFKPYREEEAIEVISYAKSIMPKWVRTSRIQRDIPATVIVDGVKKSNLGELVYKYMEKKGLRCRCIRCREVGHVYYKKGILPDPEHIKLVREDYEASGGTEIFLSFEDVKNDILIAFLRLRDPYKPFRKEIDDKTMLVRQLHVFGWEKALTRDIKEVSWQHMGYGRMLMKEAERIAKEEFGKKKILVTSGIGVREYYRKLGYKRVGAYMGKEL
# T4: MinElp3 (Methanocaldococcus infernus) (UniProt D5VRB9)
# T4 sequence: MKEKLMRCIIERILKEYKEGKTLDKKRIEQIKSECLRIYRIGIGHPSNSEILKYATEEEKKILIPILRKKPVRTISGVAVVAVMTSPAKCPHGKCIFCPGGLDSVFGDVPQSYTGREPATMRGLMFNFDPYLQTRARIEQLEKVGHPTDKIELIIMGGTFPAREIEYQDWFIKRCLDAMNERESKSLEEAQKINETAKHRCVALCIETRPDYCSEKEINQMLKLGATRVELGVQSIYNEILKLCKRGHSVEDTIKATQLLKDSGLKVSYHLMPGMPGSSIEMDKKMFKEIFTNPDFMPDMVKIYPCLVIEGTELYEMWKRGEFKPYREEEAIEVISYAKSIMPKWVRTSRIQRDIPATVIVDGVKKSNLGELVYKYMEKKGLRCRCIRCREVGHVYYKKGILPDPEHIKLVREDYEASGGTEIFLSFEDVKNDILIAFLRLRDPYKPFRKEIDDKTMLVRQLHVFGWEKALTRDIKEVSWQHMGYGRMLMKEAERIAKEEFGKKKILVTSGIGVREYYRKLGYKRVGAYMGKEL
# T5: Methanocaldococcus infernus Elp3, full length (Methanocaldococcus infernus, UniProt D5VRB9 1-534)
# T5 chain: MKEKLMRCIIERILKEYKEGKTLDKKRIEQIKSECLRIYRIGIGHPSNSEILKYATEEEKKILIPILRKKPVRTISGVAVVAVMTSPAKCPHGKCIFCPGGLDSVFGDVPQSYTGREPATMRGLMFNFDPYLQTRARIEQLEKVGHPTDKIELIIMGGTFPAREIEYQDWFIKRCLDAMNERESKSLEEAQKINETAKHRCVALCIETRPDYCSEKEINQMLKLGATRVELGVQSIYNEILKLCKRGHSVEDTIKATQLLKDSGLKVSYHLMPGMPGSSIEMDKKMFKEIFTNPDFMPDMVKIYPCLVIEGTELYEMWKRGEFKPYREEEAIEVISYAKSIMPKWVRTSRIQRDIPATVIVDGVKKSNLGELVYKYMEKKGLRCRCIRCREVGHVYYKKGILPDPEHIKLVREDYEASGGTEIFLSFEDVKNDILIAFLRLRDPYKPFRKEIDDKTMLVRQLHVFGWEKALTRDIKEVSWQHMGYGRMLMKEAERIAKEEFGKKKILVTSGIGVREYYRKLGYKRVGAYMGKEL
# Assays:
# MinElp3 [1] = biological target: T1, MinElp3; test: ITC (also tRNA-induced acetyl-CoA hydrolysis); format: binding
# DmcElp3 = biological target: T6, DmcElp3 (Dehalococcoides mccartyi, UniProt A0A1C7D1B7); test: acetyl-CoA hydrolysis by purified protein, induced by yeast bulk tRNA (weak); format: biochemical
# T6 construct: gene cbdbA595
# T6 sequence (A0A1C7D1B7 whole entry): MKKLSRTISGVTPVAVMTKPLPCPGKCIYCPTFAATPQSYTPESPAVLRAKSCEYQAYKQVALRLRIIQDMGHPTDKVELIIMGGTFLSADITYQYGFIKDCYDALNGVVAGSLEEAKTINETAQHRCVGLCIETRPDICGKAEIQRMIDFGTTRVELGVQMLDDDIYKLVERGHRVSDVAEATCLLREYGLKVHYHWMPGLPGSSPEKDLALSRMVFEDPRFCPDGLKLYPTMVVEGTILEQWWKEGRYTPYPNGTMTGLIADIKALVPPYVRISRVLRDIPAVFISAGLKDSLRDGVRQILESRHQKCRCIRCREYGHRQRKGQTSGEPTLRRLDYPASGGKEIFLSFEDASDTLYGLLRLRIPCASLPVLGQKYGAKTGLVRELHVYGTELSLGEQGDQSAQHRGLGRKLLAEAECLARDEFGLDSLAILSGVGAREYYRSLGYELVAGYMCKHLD
# MinElp3 [2] = biological target: T2, MinElp3; test: acetyl-CoA binding measurement (Supplementary Fig. 6b)
# MinElp3 [3] = biological target: T7, MinElp3 (Methanocaldococcus infernus, UniProt D5VRB9, DEL466-486/INS466GSGSG); test: ITC (also tRNA-induced acetyl-CoA hydrolysis); format: binding
# T7 construct: gene Metin_0452
# T7 sequence (D5VRB9 other isoform, or with tags, fused parts or gaps DEL466-486/INS466GSGSG): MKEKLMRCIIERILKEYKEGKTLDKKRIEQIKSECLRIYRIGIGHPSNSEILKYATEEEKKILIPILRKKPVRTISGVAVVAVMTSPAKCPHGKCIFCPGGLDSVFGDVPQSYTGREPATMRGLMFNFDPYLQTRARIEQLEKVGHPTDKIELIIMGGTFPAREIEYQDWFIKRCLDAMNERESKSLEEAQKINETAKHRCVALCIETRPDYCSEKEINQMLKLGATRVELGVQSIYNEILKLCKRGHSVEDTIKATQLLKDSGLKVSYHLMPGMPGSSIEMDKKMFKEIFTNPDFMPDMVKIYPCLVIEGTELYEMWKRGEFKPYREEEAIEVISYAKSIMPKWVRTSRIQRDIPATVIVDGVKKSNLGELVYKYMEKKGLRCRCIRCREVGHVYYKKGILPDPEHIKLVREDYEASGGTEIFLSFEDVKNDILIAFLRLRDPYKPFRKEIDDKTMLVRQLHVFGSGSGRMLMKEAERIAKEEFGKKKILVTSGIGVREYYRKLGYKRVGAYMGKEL
# MinElp3 [4] = biological target: T3, MinElp3; test: MST; conditions: EMSA: 25 C 30 min, 6% native PAGE at 4 C, tRNA stored in 20 mM HEPES pH 7.5, 150 mM NaCl, 5 mM DTT, 1 mM MgCl2, MST buffer not given in material
# [5] = system: HsMinElp3 (Methanocaldococcus infernus / Homo sapiens chimera); test: MST; conditions: mean of 180, 141, 108; EMSA: 25 C 30 min, 6% native PAGE at 4 C; tRNA stored in 20 mM HEPES pH 7.5, 150 mM NaCl, 5 mM DTT, 1 mM MgCl2; MST buffer not given in material
# [6] = system: MinElp3Δ1-41 (Methanocaldococcus infernus); test: MST; conditions: legend omits CCA; wt data identical to the CCA set; EMSA: 25 C 30 min, 6% native PAGE at 4 C; tRNA stored in 20 mM HEPES pH 7.5, 150 mM NaCl, 5 mM DTT, 1 mM MgCl2; MST buffer not given in material
# [7] = system: ScMinElp3 (Methanocaldococcus infernus / Saccharomyces cerevisiae chimera); test: MST; conditions: mean of 229, 162, 75; EMSA: 25 C 30 min, 6% native PAGE at 4 C; tRNA stored in 20 mM HEPES pH 7.5, 150 mM NaCl, 5 mM DTT, 1 mM MgCl2; MST buffer not given in material
# [8] = system: DmcElp3 (Dehalococcoides mccartyi); test: MST; conditions: EMSA: 25 C 30 min, 6% native PAGE at 4 C; tRNA stored in 20 mM HEPES pH 7.5, 150 mM NaCl, 5 mM DTT, 1 mM MgCl2; MST buffer not given in material
# [9] = system: MinElp3Δ1-19 (Methanocaldococcus infernus); test: MST; conditions: legend omits CCA; wt data identical to the CCA set; EMSA: 25 C 30 min, 6% native PAGE at 4 C; tRNA stored in 20 mM HEPES pH 7.5, 150 mM NaCl, 5 mM DTT, 1 mM MgCl2; MST buffer not given in material
# [10] = biological target: T4, MinElp3 (Methanocaldococcus infernus); test: MST; conditions: EMSA: 25 C 30 min, 6% native PAGE at 4 C; tRNA stored in 20 mM HEPES pH 7.5, 150 mM NaCl, 5 mM DTT, 1 mM MgCl2; MST buffer not given in material
# [11] = biological target: T5, Methanocaldococcus infernus Elp3, full …; test: ITC
molecule,measurement,setting,value
CC(=O)SCCNC(=O)CCNC(=O)[C@H](O)C(C)(C)COP(=O)(O)OP(=O)(O)OC[C@H]1O[C@@H](n2cnc3c(N)ncnc32)[C@H](O)[C@@H]1OP(=O)(O)O [acetyl-CoA],Kd,MinElp3 [1],135000 ± 55300 nM
same,"acetyl-CoA hydrolysis by purified protein, induced by yeast bulk tRNA (weak)",DmcElp3,"DmcElp3, on the other hand, showed ~5-times reduced-induced hydrolysis activity"
same,acetyl-CoA binding measurement (Supplementary Fig. 6b),MinElp3 [2],"As K150A shows normal tRNA and acetyl-CoA binding, we believe that it might be directly involved the hydrolysis reaction"
same,Kd,MinElp3 [3],108000 ± 55800 nM
(Sc)tRNASerUGA,Kd,"MinElp3 [4]; replicates 322, 539, 293 nM",370 nM
(Sc)tRNACysGCA,Kd,"MinElp3 [4]; replicates 240, 261, 280 nM",260 nM
(Dmc)tRNAGluUUC,Kd,"MinElp3 [4]; mean of 495, 434, 596",508 nM
(Dmc)tRNAGluUUC(CCA),Kd,[5],143 nM
same,Kd,[6],980 nM
same,Kd,MinElp3 [4],50 nM
same,Kd,[7],155 nM
same,Kd,[8],1410 nM
same,Kd,[9],210 nM
GCUCGUAUGGCGCAGUGGUAGCGCAGCAGAUUGCAAAUCUGUUGGUCCUUAGUUCGAUCCUGAGUGCGAGCUGCGUCUUCCCAUGGGUGUAUUCGGUCG [(Sc)tRNACysGCA],Kd,[10],260 nM
YMPSDKTIGG-NH2 (not fully specified (N-terminus)) [alpha-tubulin peptide Tubulin(36–44) with an added N-terminal tyrosine],Kd,[11],> 500000 nM
